Reference: a protein production outcome set (Wang et al. 2014)

Experiment: label from the status in PepcDB records

Sequence	protein production
MSESNRQRATGLVQAYYEAFNRGDWDAMLAFLAEDVAHDLNQGPREIGRAAFASFLQRMNDSYREQLRDIVVTANDEGTRVGAEYVVHGVYHTTDEGLPDANGQTYVLPGGAFFDVRDGQITRVTNYYNLQEWIAQVSR	not failed
ARQVTPGQVMVASTVAKLATIIDGEEDSTQRMGFETILPLREGNGPTLFCFHPASGFAWQFSVLSRYLDPQWSIIGIQSPRPHGPMQTAANLDEVCEAHLATLLEQQPHGPYYLLGYSLGGTLAQGIAARLRARGEQVAFLGLLDTWPPETQNWQEKEANGLDPEVLAEINREREAFLAAQQGSTSTELFTTIEGNYADAVRLLTTAHSVPFDGKATLFVAERTLQEGMTPEQAWAPWIAELDIYRQDCAHVDIISPEYFKEIGPLINTQINN	failed
MFGLVDAVSFYARAEKVFDPSIRHKPVVVLTNNDGCICAVCPIARQLGVPKFVPYFKVKSFLAKHGVVVRSSNYELYADLSERMMNVIARYSDNHYVYSIDESFLHFKNFSCVDNWHEYGHVIRKAVWRETRLPVGVGFGATLTLAKAANHASKKLSGFDGVAVIDDKASRKEILSRMSLTEVWGIGSKLGKRLSILGLKNGWDLANQSPKAMRGQFGVVVERTVNELNGMPCLQWDEIGQDKQEIFSTRSFGQRVTDGHALKAALSSHASIVGAKVRRQGSLIKRLVIFASSSPHDDSYYKKSVIYEFPIATDNILKLVGAISYVFDNIYRQGVSFYRCGVGGVELENSQFQQQDMFSLSVNNPPLMKCYDQINHRYGRGAVEVAIAEKNEKWAMRRNFLSPRSTSNWSEIPKINCLEHHHHHH	failed
VLAPVVPGKALEFPQDFGAHNDFRIEWWYVTGWLETPTGKPLGFQITFFRTATEIDRDNPSHFAPDQLIIAHVALSDPAIGKLQHDQKIARAGFDLAYARTGNTDVKLDDWIFVRETDGRYRTRIEAEDFTLTFILTPSQPLMLQGENGFSRKGPGAPQASYYYSEPHLQVSGIINRQGEDIPVTGTAWLDREWSSEYLDPNAAGWDWISANLDDGSALMAFQIRGKDDSKIWAYAALRDASGHTRLFTPDQVSFHPIRTWRSARTQAVYPVATRVLTGETEWQITPLMDDQELDSRASAGAVYWEGAVTFTRDGQPAGRGYMELTGYVRPLSM	not failed
MADQLYLENIDEFVTDQNKIVTYKWLSYTLGVHVNQAKQMLYDYVERKRKENSGAQLHVTYLVSGSLIQNGHSCHKVAVVREDKLEAVKSKLAVTASIHVYSIQKAMLKDSGPLFNTDYDILKSNLQNCSKFSAIQC	failed
MSLDTVDKLVVFLAKRDGIDKLVKTFQYVAKLACWHVEATRPEAADRFKKWEVASGLSRKAFRTGRSLTGFNALRRNPGATPMIRFLAVLANSGEMVYFFFDHFLWLSRIGSIDAKLAKKMSFISAFGESFGYTFFIIIDCIFIKQRLKSLKKLQHSTDEPKEEIGAKISEIRGDIVMRLMGISANVADLLIALAEIHPNPFCNHTITLGISGLVSAWAGWYRNWPS	failed
MTSFLSFSAISAHPPTFSGASFRPRSFSPRLFKSCVKCTYAEAGLSSASWSAPIDIVADVKSERVVVLGGNGFVGSAICKAAISNGIEVVSVSRSGRPNFEDSWLDQVTWVTGDVFYLNWDEVLLGATAVVSTIGGFGNEEQMKRINGEANVTAVNAAKDFGVPKFVLITVHDYNLPPFILSNGYFTGKRNAEAELLSKYPTSGVVLRPGFIYGKRKVNGIEVPLDLVGEPLDKIYDSAERFIRPLRSLPASDLILAPPVNVDDLALAVINAVKDDDFFGIFTIEQIKEAAAKMRA	failed
MVQIAGTPVPLSAKSRGPNALSSLLAALFLLLSQPASGAEAKQCIDNAELDAADKAFNSLHYAKADSLYQSMLQTGDQSSTLYWKLARLNISIAEAIDPSERKKRIPFYNKAVEYARKSVQLDENNASAHTWLAAALALKADKIGAKEKLNRAAEIKRELDKALALNPNDDVAWSMLGSYNFEASKIGWFSRFMGSTFVGKMPKGSREEAEKDFKKAISLNPRVIRHYHELALLYLEEDRKQEALNTLRIAETRPVLMKSDVRRLKEIKKLIAKLSKEIEEK	failed
MKGKLQNIHPLGMTIIIGTLFARFATSMSIPFLAIYLTTVKGVSAGMTGAIIGTSALVGVFASFIGGNLSDRFGRKMIMLWSMIVWMFVFIGFSLADHVLSFFLLNALNGLCRSFFEPTSRALLSDLTKPEYRLLVYNLRYGAINVGVAIGPIVGLQIGSAKSTIPFLVAAGVYILYTAILAFQFKKYPMEKKKVSTEKPVTMLNAMRILRKDIVFLVALVGIILSNCGFSHLTTTVSQYFANAHIFQDGVKVFSYMLALNAIVVVVIQYPVIQICKKYTPLVSIMVGTLFVSGGLFGFGIIESTLGAAICTIIFTIGEVLMFSMTDVFIDDIAVAHLKGTYFGAMGFSGIGAVIGPWFGGVLLDYYGYQNGFVVFSALAIFSTVAFPVLLVTKSLLKKRYDGNSNIELHAK	failed
